Laboratory results taken from the supplement of paper PMC10724198.

What follows are sequences tested on Saccharomyces cerevisiae (assay: protein stability index of tFT-peptide fusion in wild type (PSI (0-1 scale)); higher = more stable (slower turnover)). Conditions: genetic background: wild type.
Protocol: (§1)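 MPS profiling in S. cerevisiae of two library types built from selected 12-aa C-degron peptides (IN1, IN2, LN1, LN3, VN2, R1-R5, W1-W3, Atg1 and Rpa12 C-termini): saturation mutagenesis libraries and C-terminal +1 capping libraries (13 aa). Each peptide is fused to the C-terminus of a sfGFP-mCherry timer, after a GGGS linker. Cells are FACS-sorted into 8 mCherry/sfGFP bins and sequenced. PSI runs from 0 (unstable) to 1 (stable), measured once in wild type and in the das1Δ or doa10Δ background.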
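For protein stability index of tFT-peptide fusion in deletion strain of DAS1 in this document: PSI is a weighted mean of each variant's read distribution over the sorted stability bins, computed only for variants having over 10 reads in total.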
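For protein stability index of tFT-peptide fusion in wild type in this document: PSI derived as read-weighted mean over the 8 sorting bins, only variants exceeding 10 total reads kept, mCherry placed adjacent to the peptide and sfGFP distal.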

Sequence	protein stability index
ACWRVGLWRGAS	0.445
AGWRVGLWRGAS	0.424
ALIQPLPVQFLN	0.101
ALWRVGLWRGAS	0.464
ARGAVGGWRLVG	0.172
ARWIVGLWRGAS	0.398
ARWMVGLWRGAS	0.449
ARWRAGLWRGAS	0.653
ARWRIGLWRGAS	0.327
ARWRVALWRGAS	0.254
ARWRVCLWRGAS	0.397
ARWRVGLERGAS	0.661
ARWRVGLGRGAS	0.456
ARWRVGLKRGAS	0.627
ARWRVGLWFGAS	0.626
ARWRVGLWRFAS	0.101
ARWRVGLWRGAA	0.17
ARWRVGLWRGAI	0.529
ARWRVGLWRGASH	0.66
ARWRVGLWRGASM	0.651
ARWRVGLWRGASR	0.663
ARWRVGLWRGASW	0.67
ARWRVGLWRGPS	0.672
ARWRVGLWSGAS	0.67
ARWRVGLWTGAS	0.664

Sequence	protein stability index
ARWRVGWWRGAS	0.405
ARWRVWLWRGAS	0.341
ARWVVGLWRGAS	0.39
ARWYVGLWRGAS	0.469
CCSCGYKFRTNN	0.226
CSLAASFWRVVG	0.125
CTACGYKFRTNN	0.259
CTDCGYKFRTNN	0.254
CTHCGYKFRTNN	0.264
CTSCGGKFRTNN	0.61
CTSCGYAFRTNN	0.226
CTSCGYKFFTNN	0.347
CTSCGYKFNTNN	0.42
CTSCGYKFRFNN	0.303
CTSCGYKFRRNN	0.49
CTSCGYKFRTEN	0.45
CTSCGYKFRTIN	0.148
CTSCGYKFRTKN	0.631
CTSCGYKFRTNA	0.266
CTSCGYKFRTND	0.7
CTSCGYKFRTNN	0.247
CTSCGYKFRTNNF	0.711
CTSCGYKFRTNNG	0.683
CTSCGYKFRTNS	0.465

The sequences below were run on Saccharomyces cerevisiae (assay: protein stability index of tFT-peptide fusion in deletion strain of DAS1 (PSI (0-1 scale)); higher = more stable (slower turnover)). Conditions: not given.
Protocol: as §1

Sequence	protein stability index
ACWRVGLWRGAS	0.694
AGWRVGLWRGAS	0.722
ALIQPLPVQFLN	0.649
ALWRVGLWRGAS	0.707
ARGAVGGWRLVG	0.653
ARWIVGLWRGAS	0.684
ARWMVGLWRGAS	0.709
ARWRAGLWRGAS	0.7
ARWRIGLWRGAS	0.671
ARWRVALWRGAS	0.671
ARWRVCLWRGAS	0.705
ARWRVGLERGAS	0.7
ARWRVGLGRGAS	0.679
ARWRVGLKRGAS	0.663
ARWRVGLWFGAS	0.666
ARWRVGLWRFAS	0.675
ARWRVGLWRGAA	0.675
ARWRVGLWRGAI	0.685
ARWRVGLWRGASH	0.685
ARWRVGLWRGASM	0.639
ARWRVGLWRGASR	0.676
ARWRVGLWRGASW	0.71
ARWRVGLWRGPS	0.69
ARWRVGLWSGAS	0.693
ARWRVGLWTGAS	0.677

Sequence	protein stability index
ARWRVGWWRGAS	0.701
ARWRVWLWRGAS	0.711
ARWVVGLWRGAS	0.694
ARWYVGLWRGAS	0.696
CCSCGYKFRTNN	0.681
CSLAASFWRVVG	0.69
CTACGYKFRTNN	0.676
CTDCGYKFRTNN	0.662
CTHCGYKFRTNN	0.709
CTSCGGKFRTNN	0.675
CTSCGYAFRTNN	0.697
CTSCGYKFFTNN	0.727
CTSCGYKFNTNN	0.722
CTSCGYKFRFNN	0.699
CTSCGYKFRRNN	0.703
CTSCGYKFRTEN	0.725
CTSCGYKFRTIN	0.698
CTSCGYKFRTKN	0.702
CTSCGYKFRTNA	0.697
CTSCGYKFRTND	0.695
CTSCGYKFRTNN	0.691
CTSCGYKFRTNNF	0.712
CTSCGYKFRTNNG	0.69
CTSCGYKFRTNS	0.697
